According to US20180371091A1 (JOUNCE THERAPEUTICS, published 2018):

T1: hICOSL-mG2a (human; mouse, UniProt O75144 19-256, limits assumed)
T1 construct: also called hICOSL-mG2a Fc; not shown: mouse IgG2a Fc
T1 sequence (looked up): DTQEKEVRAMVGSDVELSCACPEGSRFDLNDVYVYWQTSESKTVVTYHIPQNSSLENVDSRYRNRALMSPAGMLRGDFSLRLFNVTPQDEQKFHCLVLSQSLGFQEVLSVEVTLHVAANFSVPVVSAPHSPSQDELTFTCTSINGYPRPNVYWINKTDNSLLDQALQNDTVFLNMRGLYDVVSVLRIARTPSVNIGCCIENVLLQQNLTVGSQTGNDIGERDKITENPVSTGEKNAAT

T2: mouse ICOS (full length, on cells) (mouse, UniProt Q9WVS0 21-200)
T2 construct: also called CHO-mICOS; mouse ICOS+ CHO cells
T2 sequence: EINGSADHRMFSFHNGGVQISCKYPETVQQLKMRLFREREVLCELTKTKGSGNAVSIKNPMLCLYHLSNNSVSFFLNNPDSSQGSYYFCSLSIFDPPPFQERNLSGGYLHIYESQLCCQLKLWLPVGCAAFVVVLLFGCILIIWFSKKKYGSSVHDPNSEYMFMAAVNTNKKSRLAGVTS

T3: mouse ICOS-hFc (homodimeric, bivalent) (mouse; human, UniProt Q9WVS0 21-142)
T3 construct: also called mICOS-hFc; mouse ICOS-Fc; not shown: human IgG1 Fc (IgG1 backbone)
T3 sequence: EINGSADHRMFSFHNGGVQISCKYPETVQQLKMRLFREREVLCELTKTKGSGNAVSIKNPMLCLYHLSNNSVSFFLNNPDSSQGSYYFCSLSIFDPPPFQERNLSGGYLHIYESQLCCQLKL

T4: cynomolgus ICOS-Fc (homodimeric, bivalent) (cynomolgus monkey, UniProt Q9Y6W8 21-140 (human entry))
T4 construct: also called cynoICOS-Fc; cyno ICOS-Fc; not shown: human IgG1 Fc (IgG1 backbone)
T4 chain: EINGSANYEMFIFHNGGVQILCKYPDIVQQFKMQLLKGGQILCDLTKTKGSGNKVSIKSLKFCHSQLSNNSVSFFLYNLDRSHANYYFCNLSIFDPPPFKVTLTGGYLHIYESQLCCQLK

T5: human CTLA-4 Fc fusion (dimeric) (human, UniProt P16410 37-162)
T5 construct: not shown: Fc part not described
T5 sequence (looked up): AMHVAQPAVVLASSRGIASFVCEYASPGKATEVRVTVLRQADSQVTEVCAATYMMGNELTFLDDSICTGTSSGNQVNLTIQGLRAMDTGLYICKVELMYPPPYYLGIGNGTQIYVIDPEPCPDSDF

T6: mouse PD-1 Fc fusion (dimeric) (mouse, UniProt Q02242 25-167)
T6 construct: not shown: Fc part not described
T6 sequence (looked up): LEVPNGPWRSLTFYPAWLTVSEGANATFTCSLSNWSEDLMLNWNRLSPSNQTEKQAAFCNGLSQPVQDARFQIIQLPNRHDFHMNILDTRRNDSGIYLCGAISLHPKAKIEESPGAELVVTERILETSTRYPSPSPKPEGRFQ

T7: mouse CD28 Fc fusion (dimeric) (mouse, UniProt P31041 20-150)
T7 construct: not shown: Fc part not described
T7 sequence (looked up): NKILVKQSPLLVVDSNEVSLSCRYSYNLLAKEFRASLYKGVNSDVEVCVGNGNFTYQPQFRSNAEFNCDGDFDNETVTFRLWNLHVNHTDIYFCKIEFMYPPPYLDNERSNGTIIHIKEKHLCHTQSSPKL

T8: human BTLA Fc fusion (dimeric) (human, UniProt Q7Z6A9 31-157)
T8 construct: not shown: Fc part not described
T8 sequence (looked up): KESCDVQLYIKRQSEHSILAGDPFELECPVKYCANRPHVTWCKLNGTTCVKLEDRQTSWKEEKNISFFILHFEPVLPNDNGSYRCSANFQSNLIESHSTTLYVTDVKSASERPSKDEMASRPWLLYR

T9: mouse BTLA Fc fusion (dimeric) (mouse, UniProt Q7TSA3 30-183)
T9 construct: not shown: Fc part not described
T9 sequence (looked up): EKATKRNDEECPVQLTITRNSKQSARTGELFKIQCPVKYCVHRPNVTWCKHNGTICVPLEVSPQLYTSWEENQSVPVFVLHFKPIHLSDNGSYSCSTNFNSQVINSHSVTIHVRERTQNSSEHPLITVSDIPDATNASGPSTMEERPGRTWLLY

T10: monovalent, heterodimeric human ICOS-Fc (human)
T10 construct: Make-up of the heterodimer is not described; also called Monomeric hICOS; monomeric form of human ICOS; not shown: The human IgG1 Fc fused to ICOS, and the partner Fc chain of the heterodimer
T10 chain: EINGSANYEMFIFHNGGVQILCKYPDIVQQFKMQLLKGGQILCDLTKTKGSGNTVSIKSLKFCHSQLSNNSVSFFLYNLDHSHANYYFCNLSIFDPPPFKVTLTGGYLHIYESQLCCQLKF

B1: human ICOS-hFc (homodimeric, bivalent) (Fc fusion)
chain: EINGSANYEMFIFHNGGVQILCKYPDIVQQFKMQLLKGGQILCDLTKTKGSGNTVSIKSLKFCHSQLSNNSVSFFLYNLDHSHANYYFCNLSIFDPPPFKVTLTGGYLHIYESQLCCQLKF
notes: also called hICOS-Fc; hICOS-hFc; not shown: human IgG1 Fc (IgG1 backbone)

Key:
hICOSL-mG2a = target: T1, hICOSL-mG2a; test: BLI, bivalent binding to homodimeric ICOS-Fc
[1] = target: T2, mouse ICOS (full length, on cells); test: flow cytometry on ICOS+ CHO cells
Text: To assess specificity, binding to human ICOS+ CHO cells and mouse ICOS+ CHO cells was individually analyzed by flow cytometry. As a control to screen out pan-reactive antibodies, staining on CHO cells lacking ICOS receptor expression was also examined. All of the selected antibodies bound to human and mouse ICOS+ CHO cells, and not to CHO cells lacking ICOS expression.

[2] = target: B1; test: BLI (Octet RED96), full-length IgG vs homodimeric ICOS-Fc (avid)
Protocol: (§1) Affinity measurements were conducted using Bio-Layer Interferometry (BLI) technology (ForteBio Octet® RED96). The monovalent affinities were generated with IgG versions of the antibodies with monovalent, heterodimeric forms of the ICOS receptor. The avid affinities were generated using full-length IgGs against homodimeric forms of the ICOS receptor.

[3] = target: T3, mouse ICOS-hFc (homodimeric, bivalent); test: BLI
Protocol: (§2) Cross-reactivity measurements were conducted using BLI technology with antibody panels being screened for binding to human, mouse, and cynomolgus ICOS-Fc fusions (homodimeric, bivalent forms).

[4] = target: B1; test: BLI, bivalent binding to homodimeric ICOS-Fc
Protocol: as §2

[5] = target: T4, cynomolgus ICOS-Fc (homodimeric, …); test: BLI, bivalent binding to homodimeric ICOS-Fc
Protocol: as §2

[6] = target: T5, human CTLA-4 Fc fusion (dimeric); test: binding to dimeric Fc fusions of CD28 family members
Protocol: (§3) To further assess the specificity of the anti-ICOS antibodies, the antibodies were screened for binding to additional members of the CD28 protein family (CD28, BTLA, PD-1 and CTLA-4). […] Specifically, binding to Fc fusions (of CD28, BTLA, PD-1 and CTLA-4) in dimeric forms was evaluated, and no binding was observed. For a subset of the CD28 family members, mouse or human protein was over-expressed on the surface of HEK293 and CHOK1 cells. No binding of antibody above background relative to untransduced parental cells was observed.

[7] = target: T6, mouse PD-1 Fc fusion (dimeric); test: as above
Protocol: as §3

[8] = target: T11, human CD28 Fc fusion (dimeric) (human, UniProt P10747 19-152); test: as above
T11 construct: not shown: Fc part not described
T11 sequence (P10747 19-152): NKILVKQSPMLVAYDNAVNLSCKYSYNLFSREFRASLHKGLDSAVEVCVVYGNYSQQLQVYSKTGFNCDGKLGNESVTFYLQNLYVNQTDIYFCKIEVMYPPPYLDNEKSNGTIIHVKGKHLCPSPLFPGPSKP
Protocol: as §3

[9] = target: T7, mouse CD28 Fc fusion (dimeric); test: as above
Protocol: as §3

[10] = target: T8, human BTLA Fc fusion (dimeric); test: as above
Protocol: as §3

[11] = target: T12, human PD-1 Fc fusion (dimeric) (human, UniProt Q15116 25-167); test: as above
T12 construct: not shown: Fc part not described
T12 sequence (Q15116 25-167): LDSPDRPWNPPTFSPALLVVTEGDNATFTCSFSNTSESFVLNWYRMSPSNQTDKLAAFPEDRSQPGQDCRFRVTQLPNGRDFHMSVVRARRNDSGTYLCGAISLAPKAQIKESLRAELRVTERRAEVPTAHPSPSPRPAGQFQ
Protocol: as §3

[12] = target: T9, mouse BTLA Fc fusion (dimeric); test: as above
Protocol: as §3

[13] = target: T13, mouse CTLA-4 Fc fusion (dimeric) (mouse, UniProt P09793 36-162); test: as above
T13 construct: not shown: Fc part not described
Protocol: as §3

[14] = target: T10, monovalent, heterodimeric human ICOS-Fc; test: BLI (Octet RED96), IgG vs monovalent heterodimeric ICOS-Fc
Protocol: as §1

Binder | binding result [1] | Kd [2] [nM] | koff [2] [s⁻¹] | kon [2] [M⁻¹ s⁻¹] | binding result [3] | Kd [4] [nM] | koff [4] [s⁻¹] | kon [4] [M⁻¹ s⁻¹] | Kd [5] [nM] | koff [5] [s⁻¹] | kon [5] [M⁻¹ s⁻¹] | binding result [6] | binding result [7] | binding result [8] | binding result [9] | binding result [10] | binding result [11] | binding result [12] | binding result [13] | Kd [14] [nM] | also measured
B1 |  |  |  |  |  |  |  |  |  |  |  |  |  |  |  |  |  |  |  |  | Kd (hICOSL-mG2a): 0.362 nM; koff (hICOSL-mG2a): 0.000341 s⁻¹; kon (hICOSL-mG2a): 941000 M⁻¹ s⁻¹
7F12 (antibody, V domains shown, Armenian hamster monoclonal tested as IgG; also called hamster anti-ICOS 7F12) VH: EVQLVESGGGLVKPGGSLTLSCAASGFTFSDYWMDWVRQGPGKGLEWVGNIDEDGSTTYYAPFVKGRFTISRDNAKKTLYLQMNSVKSEDTATYYCTRWGRYAFDSWGQGTLVTVSS VL: DIVMTQSPSSLAVSPGDKVTINCKSSQSLLSGNYNYLAWYQQKTGQAPKLLIFYASTRHTGVPDRFMGSGSGTDFSLTINSFQTEDLGDYYCQHHYSTPPTFGPGTKLEIK | binds | 0.0342 | 2.3e-05 | 674000 | binds | 0.0342 | 2.3e-05 | 674000 | < 0.001 | < 1e-07 | 585000 | no binding | no binding | no binding | no binding | no binding | no binding | no binding | no binding | 13.2 | koff [14]: 0.00175 s⁻¹; kon [14]: 133000 M⁻¹ s⁻¹
16G10 (antibody, V domains shown, Armenian hamster monoclonal tested as IgG; also called hamster anti-ICOS 16G10) VH: EVQLVESGGGLVKPGGSLKLSCAASGFTFSDYWMDWVRQAPGKGLEWVGNIDHDGNIINFAPSVKGRFTISRDNAKNTLYLQMNSVKSEDTATYYCARWGHYAFDSWGQGTLVTVSS VL: DIVMTQSPSSLAVSAGDKVTINCKSSQSLLSSGYNYLIWYQQKTGQAPKLLIFYASTRHTGVPDRFIGSGSGTDFTLTITSFQTEDLGDYYCQHHYSSPPTFGPGTKLEIK | binds | < 0.001 | < 1e-07 | 1.01e+06 | binds | < 0.001 | < 1e-07 | 626000 | < 0.001 | < 1e-07 | 647000 | no binding | no binding | no binding | no binding | no binding | no binding | no binding | no binding | 4.37 | koff [14]: 0.000712 s⁻¹; kon [14]: 163000 M⁻¹ s⁻¹
37A10 (antibody, V domains shown, Armenian hamster monoclonal tested as IgG; also called hamster anti-ICOS 37A10) VH: EVQLVESGGGLVKPGGSLKLSCAASGFTFSDYWMDWVRQAPGKGLEWVGNIDEDGSITEYSPFVKGRFTISRDNVKNTLYLQMNSVKSEDTATYYCTRWGRFGFDSWGQGTLVTVSS VL: DIVMTQSPSSLAVSAGDRVTINCKSSQSLLSGSFNYLTWYQQKTGQAPKLLIFYASTRHTGVPDRFMGSGSGTDFTLTINSFQTEDLGDYYCHHHYNAPPTFGPGTKLELR | binds | 0.0342 | 2.3e-05 | 674000 | binds | < 0.001 | < 1e-07 | 625000 | < 0.001 | < 1e-07 | 712000 | no binding | no binding | no binding | no binding | no binding | no binding | no binding | no binding | 3.18 | koff [14]: 0.000479 s⁻¹; kon [14]: 151000 M⁻¹ s⁻¹
36E10 (antibody, V domains shown, Armenian hamster monoclonal tested as IgG; also called hamster anti-ICOS 36E10) VH: EVQLVESGGGLVKPGGSLKLSCAASGFTFSDYWMDWVRQAPGKGLEWVGNIDEDGSITEYSPFVKGRFTISRDNVKNILYLQMNSVKSEDTATYYCTRWGRFAFDSWGQGTLVTVSS VL: DIVMTQSPSSLAVSPGDRVTINCKSSQSLLSGSFHYLTWYQQKTGQAPKLLIFYASTRHTGVPDRFMGSGSGTDFTLTINSFQTEDLGDYYCHHHYNAPPTFGPGTKLELR | binds | < 0.001 | < 1e-07 | 626000 | binds | < 0.001 | < 1e-07 | 617000 | < 0.001 | < 1e-07 | 697000 | no binding | no binding | no binding | no binding | no binding | no binding | no binding | no binding | 1.59 | koff [14]: 0.000228 s⁻¹
